Test results: US9333268B2, “Methods of treatment with arginine deiminase” (Polaris Group, priority 2012, dated 2016)

Tests used:
SK-LC-13 cells = assay: Western blot of active caspase 3; assay type: cell-based, human
Experimental: Following washing, the membranes were then probed with the appropriate secondary antibody before proteins were finally visualized using ECL reagent (Perkin-Elmer, Fremont Calif., USA).
In order to determine the possible mechanism of the antiproliferative effects of ADI-PEG 20 a FACS analysis of apoptosis by sub-G1 DNA content was performed. Cells were treated for 72 h before the analysis was performed.

[1] = test system: ASS high osteosarcoma cell line MG63; assay: Sarcoma cell line panel treated with ADI-PEG 20; assay type: cell-based
[2] = in the mice; cited from earlier work
[3] = test system: ASS-positive colon carcinoma cell line SW1222; assay: MTS proliferation assay, adherent cells; assay type: cell-based; conditions: 0 to 10 mIU ml^−1, 120 h
Experimental: (§1) To assess the anti-proliferative effect of ADI-PEG 20 on adherent cells, cells were plated a density of 2×10^3 cells per well in a tissue culture 96-microwell plate and allowed to adhere overnight. The following day, cells were treated with ADI-PEG 20 (DesigneRx Pharmaceuticals, Vacaville, Calif., USA, a subsidiary of Polaris Group, San Diego, Calif., USA) ranging from 0 to 10 mIU ml^−1. After incubation for 120 h, cell viability was determined using (3-(4,5-dimethylthiazol-2-yl)-5-(3-carboxymethoxyphenyl)-2-(4-sulfophenyl)-2H-tetrazolium) (MTS, CellTiter 96 AQueous One Solution, Promega, Madison, Wis., USA), according to the manufacturers protocol. Twenty microliters of MTS reagent was added to the appropriate control and assay wells before the plate was incubated for 2 h at 37° C. and absorbance read at 490 nm. Absolute absorbance for each treatment was determined by subtracting the background MTS absorbance, and the mean and standard deviation was calculated. The effect of the autophagy inhibitor chloroquine (Sigma) on cell proliferation was assessed using the MTS assay.

[4] = test system: ASS low expressing osteosarcoma cell line MNNG; assay: Xenograft of osteosarcoma cell line MNNG in nude mice; assay type: in vivo; conditions: compared to PBS treated controls
[5] = test system: non-adherent ASS-deficient cells; assay: Total protein proliferation assay, non-adherent cells; assay type: cell-based; conditions: 0-10 mIU ml^−1, 120 h
Experimental: (§2) To assess the activity of ADI-PEG 20 in non-adherent cells, cells were plated at a density of 1×10^5 cells per well in a tissue culture 24-well plate. Additional media was then added containing ADI-PEG 20 for final concentrations ranging from 0-10 mIU ml^−1. To measure changes in proliferation following incubation with ADI-PEG 20 for 120 h, cells were collected, washed and lysed in RIPA buffer. Total protein for each treatment was then determined using the BSA protein assay as a measure of total cell number. All treatments were performed at least in triplicate.

[6] = test system: non-adherent ASS-positive cells; assay: as above; assay type: cell-based; conditions: 0-10 mIU ml^−1, 120 h
Experimental: as §2

[7] = test system: sarcoma cell lines with low expression of ASS; assay: Sarcoma cell line panel treated with ADI-PEG 20; assay type: cell-based
SW1222 = assay: MTS viability of siRNA-transfected ASS-positive SW1222 cells treated with ADI-PEG 20; assay type: cell-based
Experimental: as §1
To further assess the importance of cellular ASS expression in response to treatment with ADI-PEG 20, expression of ASS was silenced through the use of ASS-specific siRNA. Small interfering RNA constructs were obtained from Integrated DNA technologies (IDT, Coralville, Iowa, USA) against the ASS-coding region. […]

[8] = test system: ASS-negative SCLC cell line SW1271; assay: MTS proliferation assay, adherent cells; assay type: cell-based, human; conditions: 0 to 10 mIU ml^−1, 120 h
Experimental: as §1

[9] = test system: ASS-negative SCLC cell line SK-LC-13; assay: MTS proliferation assay, adherent cells; assay type: cell-based, human; conditions: 0 to 10 mIU ml^−1, 120 h
Experimental: as §1

B1: ADI-PEG 20: arginine deiminase (ADI) formulated with PEG of 20,000 m.w. (protein)
chain: MSVFDSKFNGIHVYSEIGELETVLVHEPGREIDYITPARLDELLFSAILESHDARKEHQSFVKIMKDRGINVVELTDLVAETYDLASKAAKEEFIETFLEETVPVLTEANKEAVRAFLLSKPTHEMVEFMMSGITKYELGVESENELIVDPMPNLYFTRDPFASVGNGVTIHFMRYIVRRRETLFARFVFRNHPKLVKTPWYYDPAMKMSIEGGDVFIYNNETLVVGVSERTDLDTITLLAKNIKANKEVEFKRIVAINVPKWTNLMHLDTWLTMLDKNKFLYSPIANDVFKFWDYDLVNGGAEPQPQLNGLPLDKLLASIINKEPVLIPIGGAGATEMEIARETNFDGTNYLAIKPGLVIGYDRNEKTNAALKAAGITVLPFHGNQLSLGMGNARCMSMPLSRKDVKW
SK-LC-13 cells
  activation of caspases: no activation of caspases
[1]
  cell division: continued to divide
[2]
  half-life: ~7 days
[3]
  growth: No effect
[4]
  tumor growth rate: significantly slower tumor growth rate
[5]
  proliferation: relative decrease in proliferation
[6]
  proliferation: almost total resistance
[7]; ASS expression low
  cell cycle and apoptosis: cell cycle arrest but not apoptosis
[7]; sarcomas that lack ASS
  autophagy: induced autophagy
[7]; sensitive cell lines with low expression of ASS
  IC50: 0.02 to 0.1 µg/mL
SW1222; cells treated with ASS siRNA
  cell viability: reduced cell viability
SW1222; control or scrambled siRNA-treated cells
  cell viability: no decrease in viability
[8]
  proliferation: clear dose-dependent decrease in proliferation
[9]
  proliferation: clear dose-dependent decrease in proliferation
